T1: RB (Homo sapiens, UniProt P06400)
T1 construct: coding region of RB cDNA was subcloned into pGEX-6P (Amersham/Pharmacia) for generation of GST-RB; made in house
T1 sequence (P06400 1-928): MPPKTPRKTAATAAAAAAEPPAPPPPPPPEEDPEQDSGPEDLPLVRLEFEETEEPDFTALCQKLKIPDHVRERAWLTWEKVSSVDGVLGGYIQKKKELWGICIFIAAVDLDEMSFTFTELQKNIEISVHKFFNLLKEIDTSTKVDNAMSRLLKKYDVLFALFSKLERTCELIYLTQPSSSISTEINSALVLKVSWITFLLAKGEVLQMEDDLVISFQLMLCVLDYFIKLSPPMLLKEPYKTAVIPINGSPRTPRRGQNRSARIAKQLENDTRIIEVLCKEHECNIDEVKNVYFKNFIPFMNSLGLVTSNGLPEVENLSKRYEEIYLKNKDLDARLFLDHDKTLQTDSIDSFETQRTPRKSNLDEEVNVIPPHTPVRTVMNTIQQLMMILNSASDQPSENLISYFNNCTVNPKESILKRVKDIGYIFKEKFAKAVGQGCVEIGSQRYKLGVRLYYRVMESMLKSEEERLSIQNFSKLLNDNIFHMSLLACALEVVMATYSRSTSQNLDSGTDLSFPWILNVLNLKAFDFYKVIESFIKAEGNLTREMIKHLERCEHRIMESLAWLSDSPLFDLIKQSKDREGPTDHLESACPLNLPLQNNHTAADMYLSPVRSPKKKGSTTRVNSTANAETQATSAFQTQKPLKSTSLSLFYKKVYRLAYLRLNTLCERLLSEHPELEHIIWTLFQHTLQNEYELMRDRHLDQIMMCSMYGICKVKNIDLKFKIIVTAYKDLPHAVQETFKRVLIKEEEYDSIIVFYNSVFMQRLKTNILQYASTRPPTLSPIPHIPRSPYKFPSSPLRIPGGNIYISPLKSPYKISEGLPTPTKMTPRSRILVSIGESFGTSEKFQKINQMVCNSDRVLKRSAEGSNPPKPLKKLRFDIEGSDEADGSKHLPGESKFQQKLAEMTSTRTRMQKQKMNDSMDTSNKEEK

B1: PRMT2(1-218): deletion mutant lacking the C-terminal domain, retains SH3 domain and a large part of the AdoMet binding domain (protein)
chain: MATSGDCPRSESQGEEPAECSEAGLLQEGVQPEEFVAIADYAATDETQLSFLRGEKILILRQTTADWWWGERAGCCGYIPANHVGKHVDEYDPEDTWQDEEYFGSYGTLKLHLEMLADQPRTTKYHSVILQNKESLTDKVILDVGCGTGIISLFCAHYARPRAVYAVEASEMAQHTGQLVLQNGFADIITVYQQKVEDVVLPEKVDVLVSEWMGTCLL
B2: PRMT2(1-95): deletion mutant lacking the C-terminal and AdoMet binding domains, retains the SH3 domain (protein)
chain: MATSGDCPRSESQGEEPAECSEAGLLQEGVQPEEFVAIADYAATDETQLSFLRGEKILILRQTTADWWWGERAGCCGYIPANHVGKHVDEYDPED
B3: PRMT3: human protein arginine methyltransferase 3, expression construct (protein)
chain: CSLASGATGGRGAVENEEDLPELSDSGDEAAWEDEDDADLPHGKQQTPCLFCNRLFTSAEETFSHCKSEHQFNIDSMVHKHGLEFYGYIKLINFIRLKNPTVEYMNSIYNPVPWEKEEYLKPVLEDDLLLQFDVEDLYEPVSVPFSYPNGLSENTSVVEKLKHMEARALSAEAALARAREDLQKMKQFAQDFVMHTDVRTCSSSTSVIADLQEDEDGVYFSSYGHYGIHEEMLKDKIRTESYRDFIYQNPHIFKDKVVLDVGCGTGILSMFAAKAGAKKVLGVDQSEILYQAMDIIRLNKLEDTITLIKGKIEEVHLPVEKVDVIISEWMGYFLLFESMLDSVLYAKNKYLAKGGSVYPDICTISLVAVSDVNKHADRIAFWDDVYGFKMSCMKKAVIPEAVVEVLDPKTLISEPCGIKHIDCHTTSISDLEFSSDFTLKITRTSMCTAIAGYFDIYFEKNCHNRVVFSTGPQSTKTHWKQTVFLLEKPFSVKAGEALKGKVTVHKNKKDPRSLTVTLTLNNSTQTYGLQ
B4: PRMT2-4A: amino acids 141-144 (ILDV) in the Ado-Met domain altered to four consecutive alanines, SEQ ID NO:6 (protein)
chain: MATSGDCPRSESQGEEPAECSEAGLLQEGVQPEEFVAIADYAATDETQLSFLRGEKILILRQTTADWWWGERAGCCGYIPANHVGKHVDEYDPEDTWQDEEYFGSYGTLKLHLEMLADQPRTTKYHSVILQNKESLTDKVAAAAGCGTGIISLFCAHYARPRAVYAVEASEMAQHTGQLVLQNGFADIITVYQQKVEDVVLPEKVDVLVSEWMGTCLLFEFMIESILYARDAWLKEDGVIWPTMAALHLVPCSADKDYRSKVLFWDNAYEFNLSALKSLAVKEFFSKPKYNHILKPEDCLSEPCTILQLDMRTVQISDLETLRGELRFDIRKAGTLHGFTAWFSVHFQSLQEGQPPQVLSTGPFHPTTHWKQTLFMMDDPVPVHTGDVVTGSVVLQRNPVWRRHMSVALSWAVTSRQDPTSQKVGEKVFPIWR
modifications: A synthetic PRMT-2-4A mutant polypeptide

Experiments:
RB = molecular target: T1, RB; test: In vitro binding assay with GST-RB; conditions: S35-labeled in vitro translated protein
Experimental: The crude cell lysate of the GST-fusion proteins was prepared and purified according to the manufacture's protocol (Amersham/Pharmacia). [^35S]-methionine-labeled protein was produced by in vitro transcription/translation using the TNT T7-coupled reticulocyte lysate system (Promega). [^35S]-methionine-labeled protein and GST-fusion protein bound to glutathione sepharose 4B beads were incubated in 500 μl of HNE buffer (50 mM Hepes, pH 7.8, 150 mM NaCl, 1 mM EDTA, 1 mM DTT, 1% NP40, and 1× protease inhibitor mix (Complete: Roche)) at 4° C. for 1 hour. Beads were washed four times with HNE buffer, and then analyzed on an SDS-PAGE gradient gel (4-15%). For the detection of endogenous PRMT-2 interaction with RB, MEFs were lysed with WCL buffer (50 mM Hepes, pH 7.8, 400 mM NaCl, 2 mM EDTA, 1 mM DTT, 0.2% NP40, 10% Glycerol, 20 mM α-glycerophosphate, 5 mM NaF, 0.1 mM NaVO4, and 1× protease inhibitor mix). Then, 1 mg of whole cell extracts were incubated with HNE buffer without DTT and 3 μg of antibodies as indicated. The immune complexes were isolated using protein G beads, and washed four times with HNE buffer. The precipitated protein was boiled with SDS-loading buffer and resolved on SDS-PAGE. For immunoprecipitation of HA-tagged protein, transfected cells were lysed with RIPA buffer (phosphate buffer saline containing 1% NP40, 0.5% sodium deoxycholate, 0.1% SDS, and 1× Complete), and 100 μg of whole cell lysates were immunoprecipitated with anti-HA antibodies and washed in RIPA buffer. Western blot analysis was performed as described in Tanner et al. (1998). Circ Res, 82, 396-403.
To test whether PRMT family members interact with RB, S^35-labeled in vitro translated PRMT1, PRMT2, PRMT3, and PRMT4 (CARM1) were incubated with GST-RB fusion proteins or control GST, and co-precipitated labeled proteins were resolved by SDS-PAGE. […] An equal amount of GST-RB and GST were loaded in each lane, verified by Coomassie staining (FIG. 8B).

HIV-1 LTR = test: HIV-1 reporter transcription, transient co-transfection; type: cell-based, human; conditions: 293T cells, co-transfection
Experimental: (§1) Cell culture, transfection, and reporter gene assays. The E1A-transformed, human kidney cell line, 293, and NIH-3T3 cells were maintained in Dulbecco's Modified Eagle Medium (DMEM) supplemented with 10% fetal calf serum and penicillin-streptomycin at 37° C. in 5% carbon dioxide in tissue culture grade Petri dishes. PRMT-2−/− mouse embryo fibroblasts (MEFs) and wild type MEFs were prepared from day 13.5 embryos and maintained in DMEM supplemented with 10% fetal calf serum. MEFs at passage 4 were used in this experiment. Lipofectamine Plus™ reagent (Boehringer Mannheim) was used to transfect both 293 and NIH-3T3 cells according to directions from the manufacturer. […] TNF-α stimulation of cells was done using recombinant TNF-α (200 U/ml) for 12 hours. Transfected cells were harvested at 36 hours, and CAT activity was assayed on 10 to 100 μg of protein from whole cell extracts. CAT assays were performed essentially as described in Leung, K. & Nabel, G. J. Nature 333, 776-778 (1988). To analyze the κB-reporter activity in MEFs, cells were transfected with the reporter (2×kB-Luc) and PRL-TK vector (Promega) using FuGENE6 transfection reagent (Roche). Luciferase activity was analyzed by Dual-Luciferase Reporter Assay System (Promega).
To determine whether PRMT-1, 2 or 3 could affect NF-κB function, their potential to regulate effects on transcription of the human immunodeficiency virus type 1 (HIV-1) was examined. Transient co-transfections were performed using PRMT1, PRMT2 and PRMT3 expression plasmids with an HIV-1 reporter plasmid in the human renal epithelial cell line, 293T.
To determine its dependence on NF-κB, human immunodeficiency virus type 1 (HIV-1) reporter plasmids with wild-type (WT) or mutant (ΔκB) sites were co-transfected transiently with control or PRMT2 expression plasmids in the different cell lines. […] The KB effect was dose-dependent and was also observed with other inducers of NF-κB, including phorbol […] (PMA) (FIG. 2B, right panel).

NF-κB = NF-κB luciferase reporter assay in 293T cells; type: cell-based, human; conditions: 1 μg expression construct, 100 ng 5 κB luciferase reporter
Experimental: as §1, with “Transfected cells were harvested at 36 hours, and CAT activity was assayed on 10 to 100 μg of protein from whole cell extracts.” left out
To map the domains responsible for inhibition of HIV transcription, truncation and point mutations were made in PRMT2 (FIG. 1D) and co-transfected with an NF-κB reporter in 293T cells. PRMT2-A represents an alternatively spliced form of PRMT2 found in the expressed sequence tag (EST) database. This isoform contains the first 218 amino acids of PRMT2 and differs from full length PRMT2 by the absence of the less conserved COOH-terminal domain. PRMT2-N was generated by introducing a stop codon after amino acid 95 before the putative Ado-Met domain of PRMT2. To analyze the role of the Ado-Met domain further, another mutant, PRMT2-4A, was prepared in which 141ILDV144 (SEQ ID NO:5) in this region were altered to four consecutive alanines to compare the effects of point mutations in this highly conserved region.
The mechanism and site of action of PRMT2 in the NF-κB signaling pathway was further defined by co-transfection of PRMT2 and its mutants with different regulators in this pathway with an NF-κB reporter in 293T cells (FIG. 2D).

Molecule | binding to RB (RB) | effect on transcription of the HIV-1 reporter plasmid (HIV-1 LTR) | NF-κB activity (NF-κB)
B1 | bound GST-RB at levels comparable to that of wild type PRMT2 |  | 
B2 | did not bind GST-RB |  | 
B3 | do not bind RB | did not affect transcription | 
B4 |  |  | inhibited NF-κB activity

— patent publication US20060239990A1, “Protein Arginine N-Methyltransferase 2 (PRMT-2)” (priority 2003, published 2006)
